Measurements as given in IntAct's records for PubMed 15148308.

B1: Docking protein 1 (Mus musculus), P97465 (parent)
chain: MDGAVMEGPLFLQSQRFGTKRWRKTWAVLYPASPHGVARLEFFDHKGSSSRGGRGGSRRLDCKMIRLAECVSVVPVTVESPPEPGAVAFRLDTAQRSHLLAADAVSSTAWVQTLCRTAFPKGGWALAQTENQPKFSALEMLENSLYSPTWEGSQFWVTSQKTEASERCGLQGSYILRVEAEKLTLLTLGAQSQILEPLLFWPYTLLRRYGRDKVMFSFEAGRRCPSGPGTFTFQTSQGNDIFQAVEAAIQQQKAQGKVGQAQDILRTDSHDGETEGKTVPPPVPQDPLGSPPALYAEPLDSLRIPPGPSQDSVYSDPLGSTPAGAGEGVHSKKPLYWDLYGHVQQQLLKTKLTDSKEDPIYDEPEGLAPAPPRGLYDLPQEPRDAWWCQARLKEEGYELPYNPATDDYAVPPPRSPKPAPAPKPQGLILPESGTTRGSGSKGFSSDTALYSQVQKSGTSGAWDCGLSKVGNDRAGVKSEGST

Variants of: B1
Conditions: with nck1_mouse Nck1, Q99M51

Question: How did the “effect of a mutation on the interaction” value turn out when MDGAVMEGPLFLQSQRFGTKRWRKTWAVLYPASPHGVARLEFFDHKGSSSRGGRGGSRRLDCKMIRLAECVSVVPVTVESPPEPGAVAFRLDTAQRSHLLAADAVSSTAWVQTLCRTAFPKGGWALAQTENQPKFSALEMLENSLYSPTWEGSQFWVTSQKTEASERCGLQGSYILRVEAEKLTLLTLGAQSQILEPLLFWPYTLLRRYGRDKVMFSFEAGRRCPSGPGTFTFQTSQGNDIFQAVEAAIQQQKAQGKVGQAQDILRTDSHDGETEGKTVPPPVPQDPLGSPPALYAEPLDSLRIPPGPSQDSVYSDPLGSTPAGAGEGVHSKKPLYWDLYGHVQQQLLKTKLTDSKEDPIFDEPEGLAPAPPRGLYDLPQEPRDAWWCQARLKEEGYELPYNPATDDYAVPPPRSPKPAPAPKPQGLILPESGTTRGSGSKGFSSDTALYSQVQKSGTSGAWDCGLSKVGNDRAGVKSEGST [Y361F] was run?
Answer: disrupting interaction
